What was measured:
[1] = substrate: O=c1cc(-c2ccccc2)c2c(O)cc(O)cc2o1; test: RP-HPLC product/acceptor peak ratio, Michaelis-Menten fit; assay type: biochemical, Arabidopsis thaliana; settings: 500 μM UDP-Glc, 50 mM TBT buffer at optimal pH, 293 K; product 7-O-Glc; 20.0 °C
[2] = substrate: Cc1cc(=O)oc2cc(O)cc(O)c12; test: as above; assay type: biochemical, Arabidopsis thaliana; settings: 500 μM UDP-Glc, 50 mM TBT buffer at optimal pH, 293 K; product 5-O-Glc; 20.0 °C

B1: AtUGT78D2 (Arabidopsis thaliana) (protein)
chain: MTKPSDPTRDSHVAVLAFPFGTHAAPLLTVTRRLASASPSTVFSFFNTAQSNSSLFSSGDEADRPANIRVYDIADGVPEGYVFSGRPQEAIELFLQAAPENFRREIAKAETEVGTEVKCLMTDAFFWFAADMATEINASWIAFWTAGANSLSAHLYTDLIRETIGVKEVGERMEETIGVISGMEKIRVKDTPEGVVFGNLDSVFSKMLHQMGLALPRATAVFINSFEDLDPTLTNNLRSRFKRYLNIGPLGLLSSTLQQLVQDPHGCLAWMEKRSSGSVAYISFGTVMTPPPGELAAIAEGLESSKVPFVWSLKEKSLVQLPKGFLDRTREQGIVVPWAPQVELLKHEATGVFVTHCGWNSVLESVSGGVPMICRPFFGDQRLNGRAVEVVWEIGMTIINGVFTKDGFEKCLDKVLVQDDGKKMKCNAKKLKELAYEAVSSKGRSSENFRGLLDAVVNII
B1 showed a Km [1] of 28.9 ± 4.8 µM, a kcat [1] of 0.132 ± 0.00667 s⁻¹ and a Km [2] of 34.4 ± 4.3 µM. For the same protein, the kcat [2] was 0.932 ± 0.04 s⁻¹.
